{"source": "patent US20250195607A1", "about": "(BIOLINERX, published 2025)", "molecular_target": "CXCR4 chemokine receptor (mouse, UniProt P70658 1-359)", "sequence (P70658 whole entry)": "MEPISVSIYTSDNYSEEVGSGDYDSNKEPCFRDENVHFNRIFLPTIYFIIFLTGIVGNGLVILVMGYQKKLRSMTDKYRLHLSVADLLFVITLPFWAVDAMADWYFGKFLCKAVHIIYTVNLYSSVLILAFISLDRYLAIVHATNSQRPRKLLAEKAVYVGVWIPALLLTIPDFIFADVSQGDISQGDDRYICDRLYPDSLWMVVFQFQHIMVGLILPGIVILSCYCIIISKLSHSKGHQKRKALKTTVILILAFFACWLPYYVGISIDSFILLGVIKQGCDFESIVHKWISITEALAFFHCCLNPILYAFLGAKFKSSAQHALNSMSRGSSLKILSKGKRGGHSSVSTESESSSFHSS", "assay": "cell-based or functional assay", "note": "Bridges are numbered along the chain shown (N, C = ends). [ ]: non-standard residue; d: D form. The star is where a group is joined. 2Nal = N[C@@H](Cc1ccc2ccccc2c1)C(=O)O; Benzoyl(4-F) = O=C(c1ccc(F)cc1)*; Cit = NC(=O)NCCC[C@H](N)C(=O)O", "data": [{"binder": "{Benzoyl(4-F)}-RR[2Nal]CY[Cit]K[dK]PYR[Cit]CR-NH2 (disulfide 4-13 (inferred))", "values": [{"measurement": "Fold increase in neutrophil number in peripheral blood (mice, 5 mg/kg s.c., 2 hours after injection, flow cytometry); BL-8040 composition of Example 1", "result": 9.9, "unit": "fold"}, {"measurement": "Fold increase in neutrophil number in peripheral blood (mice, 5 mg/kg s.c., 2 hours after injection, flow cytometry); BL-8040 composition of Reference Example 1", "result": 5.6, "unit": "fold"}]}]}
